This note sets out measurements from article PMC8586658 (Cancer Science, 2021).

In the assay the target is T1, mouse IL‐2Rα on 293T cells (293Tα) (mouse, UniProt P01590 22-268).
T1 sequence: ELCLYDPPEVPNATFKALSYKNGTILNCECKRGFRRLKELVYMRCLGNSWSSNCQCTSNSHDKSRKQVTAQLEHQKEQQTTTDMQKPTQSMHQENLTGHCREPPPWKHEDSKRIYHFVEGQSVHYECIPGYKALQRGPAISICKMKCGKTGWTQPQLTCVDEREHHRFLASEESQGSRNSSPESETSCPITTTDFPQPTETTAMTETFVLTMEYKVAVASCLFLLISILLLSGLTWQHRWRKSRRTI
As to the kind of experiment: binding of NanoLuc fusion proteins to cells.

B1: Mutakine‐6 (MK‐6), IL‐2 K35A/R38A/K43A/Y45A on the MK‐0 template, fused to NanoLuc (ligand)
chain: APASSSTKKTQLQLEHLLLDLQMILNGINNYKNPALTAMLTFAFAMPKKATELKHLQCLEEELKPLEEVLNLAQSKNFHLRPRDLISNINVIVLELKGSETTFMCEYADETATIVEFLNRWITFAQSIISTLT
As to B1, the “mouse 293Tα/293T ratio” value came to 1.8 ratio.
